Data published in patent US20220273823A1, “THERANOSTIC CONJUGATES” (Ariel Scientific Innovations Ltd., priority 2019, published 2022).

Experiments:
Panc-1 = experiment: XTT cytotoxicity assay, PANC-1; type: cell-based, human; conditions: PANC-1, 10 min at 37° C., up to 25 μM, washed, XTT at 24 hours
Description: Application of the 5-CLB conjugate equipped with targeting peptide OctA was studied in the TDD monitoring using PANC-1 cancer cell line that overexpress SSTR-2 and SSTR-5 receptors. Efficient delivery of 5-CLB by the conjugated OctA to PANC-1 was verified by the XTT assay. Cytotoxicity of 5-CLB was compared to that of CLB or OctA added separately. The compounds were incubated with cells for 10 min at 37° C. at concentrations up to 25 μM, and subsequently were washed out, and growth inhibition compared to naïve/native cells was assessed in 24 hours.
The cytotoxicity of the peptide-drug conjugates was determined by measuring the mitochondrial enzyme activity, using a commercial XTT assay kit. Panc-1 cell line was cultured in RPMI medium supplemented with 10% heat-inactivated Fetal Bo-vine Serum (FBS), 2 mM glutamine, 1% penicillin and strep-tomycin and cultured at 37° C. in a humidified incubator with 6% CO2. Cells cultures were initiated in microplate wells at a concentration of 2-4×10^4 and the cells were allowed to adhere for 24 hours. […] Absorbance in the wells were measured with a TECAN Infinite M200 ELISA reader at both 480 and 680 nm—the latter being the background absorbance. […]

SSTRs = experiment: Competitive binding of 5-CLB and free octreotide to PANC-1 receptors (NIR fluorescence imaging); type: cell-based, human; conditions: 5-CLB 10 μM, Oct x1, x3, x10 molar excess, NIR channel, 60 min after incubation
Description: The specificity of 5-CLB towards PANC-1 cell line was supported also by a competitive binding of 5-CLB and commercially available octreotide to the PANC-1 receptors. In a series of experiments, PANC-1 cell line was incubated for 10 min in PBS buffer contained 5% DMSO with a constant concentration of 5-CLB (10 μM) and variable concentration of octreotide (×1, ×3 and ×10 molar excess) and washed out. Then the fluorescence images were taken in the NIR channel in 60 minutes after the incubation.
PANC-1 were incubated for 10 minutes at 37° C. in PB with 5-CLB (10 μM) and increasing concentrations of Oct (xl, x3 and x10 molar excess) and both compounds were washed out. Fluorescence images were taken at 60 min after the incubation and fluorescence intensities remaining in the cells were measured. […] At the next step, the ratiometric fluorescence monitoring of CLB release from the 5-CLB conjugate delivered into the PANC-1, has been conducted. The cells were incubated with 5-CLB for 10 min to allow accumulation of the compound, and fluorescence images were taken over time in two channels. The NIR channel enabled measurements of the signal from IRD dye conjugated with CLB (5-CLB) while the Red channel detected the signal from the RD fluorophore formed upon the CLB release. […]

[1] = Spectral properties of RD, IRD-CLB and 5-CLB in PB and CM; type: physicochemical; conditions: for ΦF / λmaxAb / λmaxFl: 25° C.
Description: The spectral properties of the dye RD and its conjugates IRD-CLB and 5-CLB were measured at the concentrations (c) of 0.6 μM in 10 mM phosphate buffer pH 7.5 (PB) and cell medium pH 7.5 (CM), both containing 20% of acetonitrile (ACN) to improve solubility of the compounds.
Table 2 presents the absorption (λmaxAb) and emission (λmaxFl) maxima, extinction coefficients (ε) and fluorescence quantum yields (ΦF) of the RD dye and IRD-CLB and 5-CLB conjugates measured at 25° C. in 10 mM phosphate buffer pH 7.5 (PB) and cell medium pH 7.5 (CM).
(§1) The biodegradable ester linker (BL) in IRD-CLB and 5-CLB can be hydrolyzed to release free CLB and, accordingly, IRD turns into RD, which is accompanied by a noticeable change in the spectral properties. The time-dependent emission spectra were recorded in PB and CM (see, FIGS. 9A-D) using the excitation wavelengths 720 nm and 532 nm. The first one enabled monitoring of the decrease in the concentration of IRD-CLB and 5-CLB, while the second one—the increase in the concentration of RD and OctA-RD. Only the NIR fluorescence of IRD-CLB and 5-CLB was detected, when excited at 720 nm; and only the red fluorescence of RD and OctA-RD was detected, when excited at 532 nm.
Absorption spectra were recorded on a Jasco V-730 UV-Vis spectrophotometer and the fluorescence spectra were measured on Edinburgh FS5 spectrofluorometer. The absorption and fluorescence spectra and the quantum yields (ΦF) were measured in a 1-cm quartz cell at ˜0.5 μM dye concentrations in PB 10 mmol buffer pH 7.4 at 25° C. and cell medium pH 7.4. Excitation wavelength was 720 nm and 532 nm. The recorded fluorescence spectra were corrected using the wavelength-dependent instrument sensitivity coefficients. Absorption and emission maxima were measured with accuracy of ±0.3 nm and ±0.5 nm, respectively, and rounded. For the determination of the quantum yields, the integrated relative intensities were measured versus ICG™ in methanol as the reference (ΦF=0.043) and Cy3™ in PBS (ΦF=0.043). The absorbance values measured for the samples and the reference at the excitation wavelength were 0.04-0.06 measured in a 1-cm cell. The absolute quantum yields were calculated according to Equation 1.

[2] = Cleavage rates for IRD-CLB and 5-CLB in PB and cell medium (time-dependent emission spectra); type: in vitro ADME; conditions: pH 7.4, incubated at 37° C., read-out: drug release half-life τ1/2 (converted)
Description: as §1
Upon the hydrolytic cleavage, the NIR emission band (FNIR) related to IRD decreases and the red emission band (FRed) of RD increases (FIGS. 9A-D). Based on the time-dependent emission spectra, the drug cleavage profiles for IRD-CLB and 5-CLB were obtained (FIG. 9A) and the drug release rates were quantified by the half-lives (τ1/2).
A stock solution of IRD-CLB and 5-CLB in acetonitrile was added to PB 10 mmol buffer pH 7.4 at 25° C. and cell medium pH 7.4, which both contained 20% of acetonitrile. The absorbance of the resulted solutions at the maximum was 0.10±0.01, when measured in a 1-cm standard quartz cell. The solutions were incubated at 37° C. during 24 hours. In certain periods of time fluorescence spectrum was measured.

[3] = Ratiometric fluorescence monitoring of CLB release from 5-CLB in PANC-1; type: cell-based; conditions: human, PANC-1 cells; PANC-1, 10 μM, 10 min incubation, NIR and Red channels; read-out: CLB cleavage half-life τ1/2
Description: The Fluorescent images were acquired by Photometrics CoolSNAP HQ2 camera mounted on an Olympus iX81 fluorescent microscope. For the Red channel a cube comprising a ET560/40x bandpass excitation filter, ET630/75m bandpass emission filter and T5851pxr dichroic filter was used. For the NIR channel a cube comprising a ET740/40x bandpass excitation filter, ET7801p long pass emission filter and T7701pxr dichroic filter was used. To monitor drug release, Panc-1 cell line was grown in six-well culture plates and then washed with PBS (pH 7.4) two times and then incubated 10 minutes with 5-CLB 10 μM solution in PBS (for better solubility PBS with 3% DMSO was used). After incubation, the samples washed thoroughly with PBS (pH 7.4) two times to remove excess conjugate and the fluorescence changes immediately measured by using fluorescent microscope. […]
The band intensities in a representative experiment were quantified by measurement of related fluorescence intensity for each image (via the “Measure” function) with Image J software.
PANC-1 were incubated for 10 minutes at 37° C. in PB with 5-CLB (10 μM) and increasing concentrations of Oct (xl, x3 and x10 molar excess) and both compounds were washed out. Fluorescence images were taken at 60 min after the incubation and fluorescence intensities remaining in the cells were measured. […]

[4] = Drug (Aza) release from Aza-Flu conjugates in PB, CM and 1.25% LH by time-dependent fluorescence spectra
[5] = cell medium (CM), in CM with 20% acetonitrile

half-life [4] [h] | SMILES | growth inhibition (Panc-1) | Fluorescence of 5-CLB accumulated in the cells in presence of free Oct (SSTRs) | ΦF ([1]; CM:ACN (4:1, v/v)) [%] | λmaxAb ([1]; CM:ACN (4:1, v/v)) [nm] | λmaxFl ([1]; CM:ACN (4:1, v/v)) [nm] | emission when excited at 532 nm ([1]; PB and CM) | ΦF ([1]; PB:ACN (4:1, v/v)) [%] | λmaxFl ([1]; PB:ACN (4:1, v/v)) [nm] | λmaxAb ([1]; PB:ACN (4:1, v/v), c=0.6 μM) [nm] | half-life ([2]; PB (10 mmol buffer), in PB with 20% acetonitrile) [h] | half-life [2, 5] [h] | half-life at 0.6 μM [2, 5] [h] | half-life at 10 μM [3] [h]
– | C[C@@H](O)[C@H](NC(=O)[C@@H]1CSSC[C@H](NC(=O)[C@@H](Cc2ccccc2)NC(=O)CCCNC(=O)CCCCCN2/C(=C/C=C3\CCCC(/C=C/C4=[N+](C)c5ccccc5C4(C)C)=C3OC(=O)CCCc3ccc(N(CCCl)CCCl)cc3)C(C)(C)c3ccccc32)C(=O)N[C@@H](Cc2ccccc2)C(=O)N[C@H](Cc2c[nH]c3ccccc23)C(=O)N[C@@H](CCCCN)C(=O)N[C@@H]([C@@H](C)O)C(=O)N1)C(N)=O [5-CLB] | dramatically higher growth inhibition compared to CLB or OctA | decreased proportionally to the Oct concentration | 5.9 | 787 | 805 | no detectable emission | 1.5 | 796 | 783 | ~2.4 | ~2 | ~2 | ~3.33
~1.8 | COc1cc(C2c3[nH]c4ccccc4c3CC3COC(=O)N32)cc(OC)c1O/C=C/C(=O)Oc1ccc2c(c1)Oc1cc(OCC(=O)O)ccc1C21OC(=O)c2ccccc21 (stereo not drawn) [Aza-Flu-COOH, (E)-2-((3′-((3-(2,6-dimethoxy-4-(3-oxo-1,3,5,6,11,11a-hexahydrooxazolo[3′,4′:1,6]pyrido[3,4-b]indol-5-yl)phenoxy)acryloyl)oxy)-3-oxo-3H-spiro [isobenzofuran-1,9′-xanthen]-6′-yl)oxy) acetic acid] | – | – | – | – | – | – | – | – | – | – | – | – | –
